{"source": "paper PMC6128611", "about": "“The molecular structure of Schistosoma mansoni PNP isoform 2 provides insights into the nucleoside selectivity of PNPs” (PLoS ONE, 2018)", "molecules": {"B1": {"name": "SmPNP2 (purine nucleoside phosphorylase isoform 2) (Schistosoma mansoni) (protein)", "chain": "MTTPVVANYENASMAADYIKRVSNVLPDIGIICGSGLGKLIEEIEERKVIPYINIPNFPKTTVAGHVGNLVLGSVGGRKIVAMQGRLHMYEGYSNQEIALPIRVMKLLGVRVLLITNLAGGINRKLKSGDFVLIKGHINFPGLGLNNVLVGPNQDEFGPRFPDLSNAYDRLLQQLALKIAQENDFQDLVHEGVYAFNGGPTYESPDESNMLLKLGCDVVGMSTVPEVIIACHCGIKVLAVSLIANNSILDAENDVSINHEKVLAVAEKRADLLQMWFKEIITRLPLD", "notes": "ORF of 287 amino acids, 6His-SUMO tag cleaved"}}, "key": {"[1]": {"biological_target": "T1, SmPNP2 (purine nucleoside phosphorylase isoform 2) (Schistosoma mansoni, UniProt A0A0U3AGT1)", "T1 construct": "ORF of 287 amino acids, 6His-SUMO tag cleaved", "T1 sequence (A0A0U3AGT1 1-287)": "B1 chain", "assay": "crystal structure at […] Å (soaking)", "format": "binding"}, "[2]": {"biological_target": "T1, SmPNP2 (purine nucleoside phosphorylase isoform 2)", "assay": "crystal structure at […] Å, ternary complex with cytosine", "format": "binding"}, "[3]": {"biological_target": "T1, SmPNP2 (purine nucleoside phosphorylase isoform 2)", "assay": "ITC; crystal structure at […] Å", "format": "binding"}, "[4]": {"substrate": "OC[C@H]1O[C@@H](n2cnc3c(O)ncnc32)[C@H](O)[C@@H]1O", "assay": "xanthine oxidase-coupled phosphorolysis kinetics (KM)", "format": "biochemical, Schistosoma mansoni", "settings": "phosphate (co-substrate)"}, "[5]": {"substrate": "Nc1ncnc2c1ncn2[C@@H]1O[C@H](CO)[C@@H](O)[C@H]1O", "assay": "xanthine oxidase-coupled phosphorolysis kinetics (KM)", "format": "biochemical, Schistosoma mansoni", "settings": "phosphate (co-substrate)"}, "purified protein": {"substrate": "Nc1ccn([C@@H]2O[C@H](CO)[C@@H](O)[C@H]2O)c(=O)n1", "assay": "purified protein", "settings": "active site; direct H-bonds of base with Met221 and Glu203, ribose O5 with His259 and Tyr202"}}, "data": [{"molecule": "Nc1ncnc2c1ccn2[C@@H]1O[C@H](CO)[C@@H](O)[C@H]1O", "note": "[tubercidin]", "values": [{"measurement": "crystal structure at 1.95 Å (soaking)", "setting": "[1]", "result": "three complexes were obtained: SmPNP2–tubercidin (7-deaza-adenosine), SmPNP2–hypoxanthine and SmPNP2–adenine"}]}, {"molecule": "O=P(O)(O)O[C@H]1O[C@H](CO)[C@@H](O)[C@H]1O", "note": "[R1P, ribose-1-phosphate]", "values": [{"measurement": "crystal structure at 1.42 Å, ternary complex with cytosine", "setting": "[2]", "result": "As expected the R1P binds in SmPNP2 in a similar way to that observed for SmPNP1–R1P complex"}]}, {"molecule": "Nc1cc[nH]c(=O)n1", "note": "[CYT, cytosine]", "values": [{"measurement": "Kd", "setting": "[3]", "result": 27, "unit": "µM"}]}, {"molecule": "B1", "values": [{"measurement": "Km", "setting": "[4]", "result": 136.4, "unit": "µM"}, {"measurement": "Vmax", "setting": "[4]", "result": 360, "unit": "µM/min"}, {"measurement": "kcat", "setting": "[4]", "result": "7 ± 0.2", "unit": "s⁻¹"}, {"measurement": "kcat/Km", "setting": "[4]", "result": "50600 ± 2900", "unit": "M⁻¹ s⁻¹"}, {"measurement": "Km", "setting": "[5]", "result": 22.3, "unit": "µM"}, {"measurement": "Vmax", "setting": "[5]", "result": 60, "unit": "µM/min"}, {"measurement": "kcat", "setting": "[5]", "result": "1.02 ± 0.02", "unit": "s⁻¹"}, {"measurement": "kcat/Km", "setting": "[5]", "result": "46000 ± 5200", "unit": "M⁻¹ s⁻¹"}, {"measurement": "Km", "setting": "purified protein", "result": 76.3, "unit": "µM"}, {"measurement": "Vmax", "setting": "purified protein", "result": 60, "unit": "µM/min"}, {"measurement": "kcat", "setting": "purified protein", "result": 2, "unit": "s⁻¹"}, {"measurement": "kcat/Km", "setting": "purified protein", "result": 26200, "unit": "M⁻¹ s⁻¹"}]}]}
